By EC50 is commonly meant the concentration that produces a half-maximal response. The low end stands for higher potency in that assay, the high end for lower potency in that assay.

The text below walks through data of patent US20050148763A1, “Peg-binding pth or peg-binding pth derivative” (Chugai Seiyaku Kabushiki Kaisha, priority 2002, published 2005).

Data set [1] concerns the target T1, human PTH1 receptors (Homo sapiens, UniProt Q03431).
T1 construct: expressed in transfected cells; host or cells: HKRK-B7 and HKRK-B64 cells (derived from pig kidney LLC-PK1 cells)
T1 sequence (Q03431 27-593): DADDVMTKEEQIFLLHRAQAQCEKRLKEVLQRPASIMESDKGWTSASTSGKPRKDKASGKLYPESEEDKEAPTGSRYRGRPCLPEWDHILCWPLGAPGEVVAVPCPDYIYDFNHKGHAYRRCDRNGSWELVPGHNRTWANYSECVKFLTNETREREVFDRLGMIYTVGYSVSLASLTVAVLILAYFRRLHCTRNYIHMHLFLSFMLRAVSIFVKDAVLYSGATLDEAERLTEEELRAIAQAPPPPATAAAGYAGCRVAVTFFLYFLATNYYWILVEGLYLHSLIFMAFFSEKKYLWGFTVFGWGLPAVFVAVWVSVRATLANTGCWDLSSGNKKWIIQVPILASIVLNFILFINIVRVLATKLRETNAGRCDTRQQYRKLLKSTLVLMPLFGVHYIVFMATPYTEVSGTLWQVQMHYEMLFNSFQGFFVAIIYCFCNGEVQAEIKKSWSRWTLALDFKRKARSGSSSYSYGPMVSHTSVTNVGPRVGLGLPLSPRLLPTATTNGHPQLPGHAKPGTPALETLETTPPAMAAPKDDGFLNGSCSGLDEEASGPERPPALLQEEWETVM
Nature of the data set: in vitro ability to produce cAMP, HKRK-B7 cells. Format: cell-based. The settings on record: Table 2(1), n=2-3. As for the experimental part: Each PEG-PTH sample was assayed for its ability to produce cAMP (indicative of the increasing effect of PTH on bone mass) as follows. […] These cells were seeded in 96-well plates at 1×10^5 cells/well and incubated overnight. […] After removing the reaction solution, the plates were placed on powdered dry ice to freeze the cells and then removed from the dry ice. The cells were thawed with 50 μL of 50 mM HCl and frozen again on dry ice. The level of intracellular cAMP was determined with a commercially available EIA kit (Biotrak cAMP EIA system, Amersham).

The nature of data set [2]: Hypercalcemic effect of PEG-[Cys^35]-PTH(1-35) in normal female DDY mice. Format: in vivo. The conditions noted are these: for Blood iCa level Hour 1: 1 hour after administration; for Blood iCa level Hour 3: 3 hours; for Blood iCa level Hour 6: 6 hours; for Blood iCa level Hour 9: 9 hours; for Blood iCa level Hour 24: 24 hours; for Blood iCa level Hour 0: before administration. As for the experimental part: 2 k, 5 k and 20 k PEG-[Cys^35]-PTH(1-35) were also adjusted similarly to 30, 10 and 2 nmol/mL (calculated as PTH) and allowed to stand on ice immediately before administration.
Using female DDY mice at 6 weeks of age (Japan SLC, Inc.), the corrected level of ionized calcium at pH 7.4 was determined for each sample in the same manner as shown in (1) above. The mice received subcutaneous administration of each drug at a dose of 5 mL/kg. The buffer was administered to a group of 5 mice. […] 150 nmol/kg 2 k, 5 k and 20 k PEG-[Cys^35]-PTH(1-35) were administered to groups of 4 mice each. 50 and 10 nmol/kg 2 k, 5 k and 20 k PEG-[Cys^35]-PTH(1-35) were administered to groups of 5 mice each. At 1, 3, 6, 9 and 24 hours after administration, blood was collected by orbital puncture to monitor the time course of corrected blood ionized calcium levels.

Data set [3] in a line: Hypercalcemic effect of PEG-PTH(1-34) in normal male BDF1 mice. Format: in vivo. The conditions noted are these: sc, hPTH(1-34) 50-500 nmol/kg, PEG-PTHs 150 nmol/kg. As for the experimental part:
2 k and 5 k PEG-PTH(1-34) were also adjusted similarly to 30 nmol/mL (calculated as PTH) and allowed to stand on ice immediately before administration.
Male BDF1 mice at 5 weeks of age (Charles River Japan, Inc.) were measured for their body weight. Immediately before drug administration, blood was collected by orbital puncture into heparinized capillary tubes and measured for baseline levels of blood ionized calcium and pH using a Ca^2+/pH analyzer (Model 348/Bayer Medical Ltd.) to give the corrected level of ionized calcium at pH 7.4 for each sample. The mice received subcutaneous administration of each drug at a dose of 5 mL/kg. […] At 1, 3 and 6 hours after administration, blood was collected by orbital puncture to monitor the time course of corrected blood ionized calcium levels.

A short description of data set [4]: Hypotensive effect in anesthetized rats. The data set is classed as in vivo. The settings on record: sc. As for the experimental part: The mono-methoxy 5 k PEG-PTH(1-34) prepared in Example 1(2) was also adjusted similarly to 36.5, 18.3 and 9.1 μg/mL (calculated as PTH(1-34)). The samples thus prepared were then stored on ice and restored to room temperature about 30 minutes before administration.
Female SD rats at 10 weeks of age (Charles River Japan, Inc.) were anesthetized by intraperitoneal administration of 50 mg/kg pentobarbital sodium (Abbott Laboratories). A catheter for blood pressure measurement and a catheter for anesthesia maintenance were inserted into the femoral artery and vein, respectively, of each rat. Anesthesia was maintained using a syringe pump (Terumo Corporation) to ensure continuous injection (at 22.5 mg/kg/hour) of pentobarbital sodium (powder form, Tokyo Kasei Kogyo Co., Ltd.) dissolved in physiological saline (Otsuka Pharmaceutical Co., Ltd.). On the other hand, each catheter for blood pressure measurement was filled with 100 U/mL heparin sodium (Novo Nordisk A/S) in physiological saline. To measure systemic blood pressure, a pressure transducer (Nihon Kohden Corporation) was connected to the catheter for blood pressure measurement and signals from the transducer were input to a blood pressure amplifier (Nihon Kohden Corporation). The resulting data were averaged for use as an indicator of systemic blood pressure. The output of systemic blood pressure was, in turn, input to a measuring unit for instantaneous heart rate (Nihon Kohden Corporation) to determine heart rate. These parameters were continuously recorded on a thermal pen recorder (Graphtec Corporation) at a speed of 5 mm/min. After surgery, an injection needle for administration of a test substance was inserted into the dorsal subcutaneous region of each rat. After each parameter had stabilized, test drugs were administered. […] This figure illustrates changes in blood pressure induced by administration of a negative control (buffer), 50 μg/kg hPTH (1-34) and 36.5 μg/kg 5 k PEG-PTH(1-34) in this order from the upper panel. In addition, the average value of blood pressure before PTH administration and the value at the maximum blood pressure drop after administration were measured for each case to determine the difference between these two values. […] The vertical axis represents the maximum blood pressure drop (mmHg) and the horizontal axis represents the amount of PTH administered.

With “2 k PEG-[Cys^35]-hPTH(1-35): [Cys^35]-PTH(1-35) conjugated with mPEG 2 k-MAL (2 kDa methoxy-PEG-maleimide) at the C-terminal cysteine (SVSEIQLMHNLGKHLNSMERVEWLRKKLQDVHNFC; Parathyroid hormone 2 kDa mPEG-maleimide at Cys35; UniProt P01270 32-66, looked up, variant V35C)”, in data set [1], the “Maximum cAMP response” value is recorded as 109.3 ± 10.1 pmol/well. The EC50 in data set [1] (cAMP production) was determined as 0.5 nM. Moreover, in data set [2] (10 nmol/kg sc), the “Blood iCa level Hour 1” value was 1.44 ± 0.03 mM, the “Blood iCa level Hour 3” value is 1.48 ± 0.02 mM, the “Blood iCa level Hour 6” value is reported as 1.39 ± 0.02 mM and the “Blood iCa level Hour 9” value was 1.32 ± 0.04 mM. Moreover, in data set [2] (10 nmol/kg sc), the “Blood iCa level Hour 24” value is on record as 1.37 ± 0.02 mM and the “Blood iCa level Hour 0” value is on record as 1.30 ± 0.04 mM. Further, in data set [2] (50 nmol/kg sc), the “Blood iCa level Hour 1” value was 1.41 ± 0.02 mM, the “Blood iCa level Hour 3” value was 1.47 ± 0.03 mM, the “Blood iCa level Hour 6” value is listed as 1.47 ± 0.02 mM and the “Blood iCa level Hour 9” value is listed as 1.29 ± 0.05 mM. In data set [2] (50 nmol/kg sc), the “Blood iCa level Hour 24” value is given as 1.34 ± 0.03 mM and the “Blood iCa level Hour 0” value is 1.27 ± 0.03 mM. Further, in data set [2] (150 nmol/kg sc), the “Blood iCa level Hour 1” value is reported as 1.44 ± 0.02 mM, the “Blood iCa level Hour 3” value was 1.47 ± 0.05 mM, the “Blood iCa level Hour 6” value is recorded as 1.48 ± 0.05 mM and the “Blood iCa level Hour 9” value was 1.26 ± 0.02 mM. Further, in data set [2] (150 nmol/kg sc), the “Blood iCa level Hour 24” value is recorded as 1.34 ± 0.03 mM and the “Blood iCa level Hour 0” value was 1.32 ± 0.02 mM. In addition, in data set [2] (female DDY mice, sc), the “increased blood ionized calcium level maintained until” value was 6 h and the “time of maximum increase in blood ionized calcium levels after administration” value was 3 h.

For the compound `CC[C@H](C)[C@H](NC(=O)[C@H](CCC(=O)O)NC(=O)[C@H](CO)NC(=O)[C@@H](NC(=O)[C@@H](N)CO)C(C)C)C(=O)N[C@@H](CCC(N)=O)C(=O)N[C@@H](CC(C)C)C(=O)N[C@@H](CCSC)C(=O)N[C@@H](Cc1cnc[nH]1)C(=O)N[C@@H](CC(N)=O)C(=O)N[C@@H](CC(C)C)C(=O)NCC(=O)N[C@@H](CCCCN)C(=O)N[C@@H](Cc1cnc[nH]1)C(=O)N[C@@H](CC(C)C)C(=O)N[C@@H](CC(N)=O)C(=O)N[C@@H](CO)C(=O)N[C@@H](CCSC)C(=O)N[C@@H](CCC(=O)O)C(=O)N[C@@H](CCCN=C(N)N)C(=O)N[C@H](C(=O)N[C@@H](CCC(=O)O)C(=O)N[C@@H](Cc1c[nH]c2ccccc12)C(=O)N[C@@H](CC(C)C)C(=O)N[C@@H](CCCN=C(N)N)C(=O)N[C@@H](CCCCN)C(=O)N[C@@H](CCCCN)C(=O)N[C@@H](CC(C)C)C(=O)N[C@@H](CCC(N)=O)C(=O)N[C@@H](CC(=O)O)C(=O)N[C@H](C(=O)N[C@@H](Cc1cnc[nH]1)C(=O)N[C@@H](CC(N)=O)C(=O)N[C@@H](Cc1ccccc1)C(=O)O)C(C)C)C(C)C` [hPTH(1-34), reference compound], the “time of maximum increase in blood ionized calcium levels after administration” value in data set [3] is reported as “one”. Moreover, the “hypotensive effect after administration (in words)” value in data set [4] (anesthetized female SD rats) was “strong hypotensive effect immediately after administration”. Moreover, the “hypotensive effect over doses, maximum blood pressure drop (in words)” value in data set [4] (anesthetized rats, hPTH(1-34) 12.5-50 μg/kg, 5 k PEG-PTH(1-34) 9.1-36.5 μg/kg) was “dose-dependent hypotensive effect in the range of 12.5 μg/kg to 50 μg/kg”. Further, in data set [2] (50 nmol/kg sc), the “Blood iCa level Hour 1” value is listed as 1.45 ± 0.03 mM, the “Blood iCa level Hour 3” value was 1.43 ± 0.03 mM, the “Blood iCa level Hour 6” value is recorded as 1.33 ± 0.02 mM and the “Blood iCa level Hour 9” value was 1.27 ± 0.05 mM. In addition, in data set [2] (50 nmol/kg sc), the “Blood iCa level Hour 24” value is reported as 1.36 ± 0.02 mM and the “Blood iCa level Hour 0” value is given as 1.31 ± 0.03 mM. In data set [2] (150 nmol/kg sc), the “Blood iCa level Hour 1” value was 1.46 ± 0.02 mM, the “Blood iCa level Hour 3” value is on record as 1.48 ± 0.03 mM, the “Blood iCa level Hour 6” value is 1.36 ± 0.02 mM and the “Blood iCa level Hour 9” value is reported as 1.32 ± 0.04 mM. In data set [2] (150 nmol/kg sc), the “Blood iCa level Hour 24” value is recorded as 1.36 ± 0.03 mM and the “Blood iCa level Hour 0” value is listed as 1.33 ± 0.03 mM. Moreover, in data set [2] (500 nmol/kg sc), the “Blood iCa level Hour 1” value is 1.44 ± 0.04 mM, the “Blood iCa level Hour 3” value was 1.46 ± 0.04 mM, the “Blood iCa level Hour 6” value is given as 1.43 ± 0.01 mM and the “Blood iCa level Hour 9” value is reported as 1.27 ± 0.04 mM. In addition, in data set [2] (500 nmol/kg sc), the “Blood iCa level Hour 24” value is 1.39 ± 0.02 mM and the “Blood iCa level Hour 0” value was 1.34 ± 0.03 mM. In addition, the “time of maximum increase in blood ionized calcium levels after administration” value in data set [2] (female DDY mice, sc) is 3 h.
